Reference: the supplement of paper PMC10598134
± gives the standard deviation.

Assay: collision cross section of modified peptide (TIMS, N2, iRT-aligned); higher = larger / more extended gas-phase ion
How it was run: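 Values are averages of 1–3 technical replicates of the most abundant feature for each charge state. Collision cross section was obtained from the Mason-Schamp equation after 1/K0 calibration with three reference ions and run-wise alignment to the median iRT peptide deviation. Synthetic peptide pools (iRT standard spiked 1:40) were separated on a 120-min nanoflow C18 gradient at 60 °C, analysed on a timsTOF Pro/HT (dda-PASEF, nitrogen, ~2.4 mbar) and identified with MaxQuant.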

[1] = charge state: 2, modification: Nitro (Y)
[2] = charge state: 2, modification: Phospho (Y)
[3] = charge state: 2, modification: Formyl
[4] = charge state: 2, modification: Glutarylation
[5] = charge state: 2, modification: Methyl (K)
[6] = charge state: 2, modification: Acetyl (K)
[7] = charge state: 2, modification: Butyryl
[8] = charge state: 2, modification: Crotonyl
[9] = charge state: 3, modification: Dimethyl (K)
[10] = charge state: 2, modification: GlyGly (K)
[11] = charge state: 2, modification: Malonyl
[12] = charge state: 3, modification: Methyl (K)
[13] = charge state: 2, modification: Succinyl

**Q.** With “FSPPSSSLQPGK [_FSPPSSS(HexNAc (ST))LQPGK_]” as the sequence, how does the collision cross section (charge state: 2, modification: HexNAc (ST)) read?
**A.** The collision cross section was 396.47 ± 1.2 Å².

**Q.** Which collision cross section (charge state: 3, modification: HexNAc (ST)) does the source give for “FSYTSQHSDYGQR [_FS(HexNAc (ST))YTSQHSDYGQR_]” here?
**A.** Its collision cross section is 502.75 ± 0.96 Å².

**Q.** Which collision cross section [1] does the source give for FTEYETQVK [_FTEY(Nitro (Y))ETQVK_] here?
**A.** Its collision cross section is 363.94 ± 0.94 Å².

**Q.** With FTEYETQVK [_FTEY(Phospho (Y))ETQVK_] as the sequence, how does the collision cross section [2] read?
**A.** Its collision cross section is 359.15 ± 0.75 Å².

**Q.** With “FVDSKVGEFSGANK [_FVDSK(Formyl)VGEFSGANK_]” as the sequence, how does the collision cross section [3] read?
**A.** Its collision cross section is 406.35 Å².

**Q.** With “FVDSKVGEFSGANK [_FVDSK(Gluratylation)VGEFSGANK_]” as the sequence, how does the collision cross section [4] read?
**A.** The collision cross section was 419.09 Å².

**Q.** With “FVDSKVGEFSGANK [_FVDSK(Methyl (K))VGEFSGANK_]” as the sequence, how does the collision cross section [5] read?
**A.** Its collision cross section is 434.66 Å².

**Q.** Which collision cross section (charge state: 2, modification: Trimethyl (K)) does the source give for “FVDSKVGEFSGANK [_FVDSK(Trimethyl (K))VGEFSGANK_]” here?
**A.** The collision cross section was 432.92 Å².

**Q.** With FYTEDSPGLK [_FY(Nitro (Y))TEDSPGLK_] as the sequence, how does the collision cross section [1] read?
**A.** Its collision cross section is 356.24 ± 0.17 Å².

**Q.** For FYTEDSPGLK [_FY(Phospho (Y))TEDSPGLK_], which collision cross section [2] is on record?
**A.** Its collision cross section is 366.92 ± 0.064 Å².

**Q.** For “GADFLVTEVENGGSLGSKK [_GADFLVTEVENGGSLGSK(Acetyl (K))K_]”, which collision cross section [6] is on record?
**A.** The collision cross section was 465.51 Å².

**Q.** And the collision cross section (charge state: 3, modification: Acetyl (K))?
**A.** The collision cross section was 541.97 Å².

**Q.** Which results are given for “GADFLVTEVENGGSLGSKK [_GADFLVTEVENGGSLGSK(Butyryl)K_]”?
**A.** collision cross section [7]: 476.08 ± 1.1 Å²; collision cross section (charge state: 3, modification: Butyryl): 551.35 Å²

**Q.** What does the source list for “GADFLVTEVENGGSLGSKK [_GADFLVTEVENGGSLGSK(Crotonyl)K_]”?
**A.** collision cross section [8]: 475.14 ± 1.9 Å²; collision cross section (charge state: 3, modification: Crotonyl): 548.96 Å²

**Q.** For “GADFLVTEVENGGSLGSKK [_GADFLVTEVENGGSLGSK(Dimethyl (K))K_]”, which collision cross section [9] is on record?
**A.** The collision cross section was 539.44 Å².

**Q.** What does the source list for “GADFLVTEVENGGSLGSKK [_GADFLVTEVENGGSLGSK(Gluratylation)K_]”?
**A.** collision cross section [4]: 481.44 ± 2 Å²; collision cross section (charge state: 3, modification: Glutarylation): 556.42 Å²

**Q.** Which collision cross section [10] does the source give for “GADFLVTEVENGGSLGSKK [_GADFLVTEVENGGSLGSK(GlyGly (K))K_]” here?
**A.** Its collision cross section is 505.48 Å².

**Q.** Which collision cross section [11] does the source give for “GADFLVTEVENGGSLGSKK [_GADFLVTEVENGGSLGSK(Malonyl)K_]” here?
**A.** Its collision cross section is 475.75 ± 0.97 Å².

**Q.** Which collision cross section [5] does the source give for “GADFLVTEVENGGSLGSKK [_GADFLVTEVENGGSLGSK(Methyl (K))K_]” here?
**A.** The collision cross section was 494.56 Å².

**Q.** What about the collision cross section [12] of the same sequence?
**A.** The collision cross section was 538.26 Å².

**Q.** Which results are given for “GADFLVTEVENGGSLGSKK [_GADFLVTEVENGGSLGSK(Succinyl)K_]”?
**A.** collision cross section [13]: 480.22 ± 1.1 Å²; collision cross section (charge state: 3, modification: Succinyl): 554.56 Å²

**Q.** With “GADFLVTEVENGGSLGSKK [_GADFLVTEVENGGSLGSK(Trimethyl (K))K_]” as the sequence, how does the collision cross section (charge state: 3, modification: Trimethyl (K)) read?
**A.** The collision cross section was 548.47 ± 1.1 Å².

**Q.** Which results are given for “GADFLVTEVENGGSLGSKK [_GADFLVTEVENGGSLGSK(hydroxyisobutyryl)K_]”?
**A.** collision cross section (charge state: 2, modification: hydroxyisobutyryl): 478.5 ± 1.3 Å²; collision cross section (charge state: 3, modification: hydroxyisobutyryl): 553.89 Å²

**Q.** For GAEKTEVAEPR [_GAEK(Acetyl (K))TEVAEPR_], which collision cross section [6] is on record?
**A.** Its collision cross section is 370.22 ± 7.6 Å².

**Q.** For GAEKTEVAEPR [_GAEK(Biotin)TEVAEPR_], which collision cross section (charge state: 2, modification: Biotin) is on record?
**A.** The collision cross section was 393.63 Å².

**Q.** For GAEKTEVAEPR [_GAEK(Butyryl)TEVAEPR_], which collision cross section [7] is on record?
**A.** Its collision cross section is 380.97 ± 1.3 Å².

**Q.** For GAEKTEVAEPR [_GAEK(Crotonyl)TEVAEPR_], which collision cross section [8] is on record?
**A.** The collision cross section was 370.18 ± 9 Å².

**Q.** For “GAEKTEVAEPR [_GAEK(Dimethyl (K))TEVAEPR_]”, which collision cross section (charge state: 2, modification: Dimethyl (K)) is on record?
**A.** Its collision cross section is 374.44 ± 1.3 Å².

**Q.** What about the collision cross section [9] of the same sequence?
**A.** Its collision cross section is 439.06 ± 1.6 Å².

**Q.** Which collision cross section [3] does the source give for GAEKTEVAEPR [_GAEK(Formyl)TEVAEPR_] here?
**A.** The collision cross section was 371.26 ± 0.89 Å².

**Q.** Which collision cross section [4] does the source give for “GAEKTEVAEPR [_GAEK(Gluratylation)TEVAEPR_]” here?
**A.** Its collision cross section is 362.79 ± 0.71 Å².

**Q.** Which results are given for GAEKTEVAEPR [_GAEK(GlyGly (K))TEVAEPR_]?
**A.** collision cross section [10]: 384.75 ± 0.88 Å²; collision cross section (charge state: 3, modification: GlyGly (K)): 448.79 ± 1.6 Å²

**Q.** For GAEKTEVAEPR [_GAEK(Malonyl)TEVAEPR_], which collision cross section [11] is on record?
**A.** Its collision cross section is 372.62 ± 0.63 Å².

**Q.** For GAEKTEVAEPR [_GAEK(Methyl (K))TEVAEPR_], which collision cross section [5] is on record?
**A.** The collision cross section was 369.74 ± 0.22 Å².

**Q.** What about the collision cross section [12] of the same sequence?
**A.** The collision cross section was 441.71 ± 4.3 Å².

**Q.** With GAEKTEVAEPR [_GAEK(Propionyl)TEVAEPR_] as the sequence, how does the collision cross section (charge state: 2, modification: Propionyl) read?
**A.** Its collision cross section is 373.13 ± 6.5 Å².

**Q.** For GAEKTEVAEPR [_GAEK(Succinyl)TEVAEPR_], which collision cross section [13] is on record?
**A.** Its collision cross section is 372.49 ± 0.4 Å².
